{"source": "the DeepSol protein solubility set"}
{"experiment": "soluble on expression in E. coli; label from the status in PepcDB or PDB records"}
{"sequence": "MKCTECSHEAGVSSFRYLYNARIDAPITLRQCPQCQAWLAVDEMAGEARQRVDAGEAPWGKSAGIEGLAEDAR", "soluble on expression in E. coli": "not soluble"}
{"sequence": "MFIRGREMISAVIEALIGSISLSTGLHTKKIDANIRYLQQYEWFRIIYEDEKYRKLFITNYKVRSYLQSKLRVRLLVKNKNAQRRFLKLVEEQIEKRHTN", "soluble on expression in E. coli": "not soluble"}
{"sequence": "MNPILTAAKQLLHKEEKILSTLKCSLTGYMITHKVPYPGMLLATNQRLLFFSQYKNTFIAEFDYEKILSIETKRRIFDKKIIFYYEDEYITLGYITSSNVEAFIDLLQRNSKTSTGL", "soluble on expression in E. coli": "not soluble"}
{"sequence": "GAATMMRLARAMRPRPDGLPAQADDLRLHRLVLNDVGPRLNVEALQRIAGNVAAQDSYPTFEAAVAAMRQISTTFGPHTDAQWDELARHIYVRQGGGWVRHFDPALAVPLGAQVAQAFEAGERILWQAYDSLDCPVLIVRGQDSDLLSAATAAEMLGRNPRARLHEVPGVGHAPTLMTPEQIEPIARFLQE", "soluble on expression in E. coli": "not soluble"}
{"sequence": "MENIFLKRLEFKAFEEDSVFSKIEGLNKFNSLNFKKPITFFSGENGTGKSTLLEAIAVNWGFNPEGGSINFNFSTKDTHLDLHNYLTVGKSVKRATDGFFLRAESFYNVATYAENIDLDFSEYGDKSLHHQSHGESFLNLVNHRFRGNGLYLLDEPEAALSPQRQLALMISIKKLIDEGSQFIIVSHSPILLAMPDSQIISFDKDSPLEITYEESMPYEITSLFLNNKNRILSHLFAE", "soluble on expression in E. coli": "not soluble"}
{"sequence": "MGSDKIHHHHHHMKKKLALVVVHEIYGVNDHMHHVTDHFTSSHIDVFCPNLLQSQPAFHYSDEEKAYHFFMNHIGFEDGKKQIETFITHLSSRYTHIGLIGFSVGATISWLCSNNPKIDFIIGCYGSRIRDYIHMKPTCATLLIFPEKEASFSVPSFIQSLQQQKNPLLEIYQLHGEHGFLNPYTEKYNGHSTNQAYNLIDSFLVKNTLIKEM", "soluble on expression in E. coli": "not soluble"}
{"sequence": "MAQVKTQRLYYSLKDYFKEKYGKRVQKITVALPFTCPNRDGTKGRGGCTYCYDGSKPSMLSPVIPLEVQIKEGIERAKKKYGEDIYFTIYYQSYTNTYADIETLKKVYDTALKFEGVVGIDVGTRPDCAPEEVLDLLEYYANKGLEVWVEYGLQSANFETLKKINRQHGVSDFVDAVLRTKKRNLKVCAHMIIGLPGETREDFIETAKLIASLPIDGIKIHPLHVIKGTVMEKQYLNEEFKTLTLEEYAEYCADVIELLPPDMVVHRITGETDEERLIAPEWCTFKYKNAVIQKVRETLERRGTYQGARYPFYKYGVLEHHHHHH", "soluble on expression in E. coli": "soluble"}
{"sequence": "RKILDSKAIDLMNALMRLNQIRPGLQYKLLSQSGPVHAPVFTMSVDVDGTTYEASGPSKKTAKLHVAVKVLQAMGYPTGFDADI", "soluble on expression in E. coli": "soluble"}
{"sequence": "MMPKVYGSLVDNETRCTHYHTFLDVIAIKFKCCNKYYPCYQCHEEHETHPIKRWSEQEFDEKAIMCGVCKHEMSIQDYMMTELCPKCQAHFNSRCKFHYHLYFELLEHHHHHH", "soluble on expression in E. coli": "not soluble"}
{"sequence": "MSLINEATLAESIRRLRQGERATLAQAMTLVESRHPRHQALSTQLLDAIMPYCGNTLRLGVTGTPGAGKSTFLEAFGMLLIREGLKVAVIAVDPSSPVTGGSILGDKTRMNDLARAEAAFIRPVPSSGHLGGASQRARELMLLCEAAGYDVVIVETVGVGQSETEVARMVDCFISLQIAGGGDDLQGIKKGLMEVADLIVINKDDGDNHTNVAIARHMYESALHILRRKYDEWQPRVLTCSALEKRGIDEIWHAIIDFKTALTASGRLQQVRQQQSVEWLRKQTEEEVLNHLFANEDFDRYYRQTLLAVKNNTLSPRTGLRQLSEFIQTQYFDEGHHHHHH", "soluble on expression in E. coli": "soluble"}
{"sequence": "MRKEKIRLEYMLKAGSGNIVWSIISTPSGLETWFADKVIFKDKVFTFYWGKTETRQAEVTNFRVNSFIRFRWLDDEDPKAYFELKMVYNELTSDYMLEVIDWAAPDEVEDTKELWDSEIEKLKRVSGLLEHHHHHH", "soluble on expression in E. coli": "soluble"}
{"sequence": "MAHHHHHHMSVVRVSITHSSSGIRVPEKRYELSQTIASIKSNIFTHFATPPEQMQLQLIDDRGVKVESSMADDKQLGYYQCRDDFVIHVVDLRPTQQIANFEDVSQVQKYEITEEAYSKREDNARAFRQLMMARQREEAEKAGNPLPKELDADSYKETAEKIHVDDRCQCQPGDRLGTVRFVGRVASLKPGYWIGVEFDEPVGKGDGSVKGTRVFECQPKYGGFLRPDQVTVGDFPPEEF", "soluble on expression in E. coli": "not soluble"}
{"sequence": "MRHNIKFKSKGTLKIRNTAQISLWKKCSDSMIADQTYLFINRVQDRRFDEESLRILELSLVAMNVKSFLEVRSRLRDFMRSESVVIFGELTGESMVAKLSVLEFFARAFALLGDMESCLAMRYEALNLRQLKSPSCLWLGVSHSEWTKFAVQSMENGFPSIAGKASENALLSLKKDSLIEPKSEDNSDILDAAEKVRRLRDSAASLTSSHSGIFIYIVSSLKFAVCNRLLTTF", "soluble on expression in E. coli": "soluble"}
{"sequence": "MGSDKIHHHHHHMPHKASVFIVEFKFELESCPLGVVIPLEESKNKLASVKPLVDLTRPDMERVNQLILSRAGSDVQMIPEVANHLISSGGKRLRPMLTLASASMFGYEGDNHIKLATSVEFMHTATLLHDDVVDESDLRRGKSTARTIWGNQASVLVGDFLLGQAFRMMVDVGSLDALDVLSTAASVIAEGEVLQLSVAKNMETTEDDYLQVIRAKTAALFAAAAEVGPIVAKTDKASRSALKSYGMNLGLAFQLVDDVLDYGGKSADLGKNTGDDFREGKITLPVILSYRRGTQDERAFWRNAIEKGESSDENLEKALGLITKYNGLGDTIGRATHYGTIARDALAPLPQSPWKNALLEVIDFCIERLN", "soluble on expression in E. coli": "not soluble"}
{"sequence": "MGSDKIHHHHHHMHSMRLSQIQDFIAVAEGGSIRAAARTRDVSAPALTKSIRQLEDELHVPLLTRTTRGVVLSHYGEAFLRRARLIATEARRATEEMTQMLGARTGTVRIGVTGGPAHLLLPAALNRFRRQHPEVQVYIDSGRSAVHLQDLRAGLIDVAVSPIPDEGIDHDFICEPLYNNDSVVVAHQDHPLRHARTLRELVGSEWILTTCRMHGPGAAIMDAFRAQDLPLPRVAVRCDTFNLIQALLQNRRLLCMVARQLMQDRVGASTGLAVLPIEDPLPSHTVCLIYRADSPMPPVVASFAAQLRREAHYLINMPDSPLKRPGAPPEPRDDKPVETADIAV", "soluble on expression in E. coli": "not soluble"}
{"sequence": "TSSLSYWQGEAFRRGFDSRGRFDDVLKILLLLDAAQKEGKALPVQEFRRHINMGYDELGELLEKLARHGYIYSGRQGWVLKTGADSIELNELFKLFVYRPLPVERDHVNQAVDAVMTPCLQTLNMTLAEFDAQAKKRQ", "soluble on expression in E. coli": "not soluble"}
{"sequence": "MLLAMELLLEYDYYWKLDNIIANVQRNFPSNSLTVLFPKTHLLISPENMGRVAAKLIRLTEKNQQRNGIVTFKLYYQHEEGEEEEEEEVDEDEDEEGEEGEEEEEEEDEVEEVPQKISEIFNLGAHLVGEPPENCWYLEDILTIPKEIIKDAFGDVTVWYGKSFQLRNSIANRRIHFNLFYTKNYLKKFFMERDGCMMETEFLRHFKDIAN", "soluble on expression in E. coli": "not soluble"}
{"sequence": "ALNQMNNLMTQEATGLKILCAPDKDSSFVIYEDDGETMDYANGGYLKTVLDIKAGEQTVLSFRNEGEYETAVEDIYLDVIHREKAPYWVKADGHELPHFLHRKKFEAAQEGWYYSQSLKSVQIKYKNPKKDYEVIVSFEQFDMIGM", "soluble on expression in E. coli": "not soluble"}
{"sequence": "MGHHHHHHSHMAIQVDKFNFESFPESPGEKGQFANPKQLEEERREARGLEIHSKLGICWRIPSLKRSGEASVEGLLNQLVLEHLQLAPLQWDVLVDGQPCDREAVAACQVGDPVRLEVRLTNRSPRSVGPFALTVVPFQDHQNGVHNYDLHDTVSFVGSSTFYLDAVQPSGQSACLGALLFLYTGDFFLHIRFHEDSTSKELPPSWFCLPSVHVCALEAQA", "soluble on expression in E. coli": "not soluble"}
{"sequence": "DRCYNCGGLDHHAKECKLPPQPKKCHFCQSISHMVASCPLKAQQGPSAQG", "soluble on expression in E. coli": "soluble"}
{"sequence": "MSFVKKTKNFFGLDGEADPYMEHSDAYYDEPRYEPAPAYSAPRYEEPIYASARPRAARPMPTHIVPVRLLTYSDAAIKVGDPFRDGDAVVFDMSDMHKGEAKRIIDFAAGLCFALRGQMRKLDGRIFALVPESASVDENDLKHAAGLIHLEHHHHHH", "soluble on expression in E. coli": "not soluble"}
{"sequence": "MSLNPYKIEVVDHTKLVESNTSINEKEEKSISSVEERANLYEDDEENDEEEDSNEFASEAIPFYSVLGEKDYFYFPSEQIQEHYSKRIPGYFMPNNYYCVNYDFTYNPVKKNVNGDEDDDDDEEEEEGDSGTDRKVKTQEKFRASFIFIDTWALMVGFPIIRNYRAFREQFNWLSKTLYESAKKSDWIFVVGHHPLISSGRRSDNYSYEEHSFHDIIRDFLFNYHVDAYFSAHDHLMEYIKFGSVDLFINGSSSRVLFDNSSMGRGYFGKIIGKLYPLSCYVLKTIHTGLKPKGCNINRYSKWYNKSDIGFSTHKLTKDELVTQFISSRTGKPLSEKIITKNKKHEREGHHHHHH", "soluble on expression in E. coli": "soluble"}
{"sequence": "MAHHHHHHMGGCVVSVMAKRNAAQVMPDPRAEALERRRAQCGGNFVQRVPGTESEHASAIYRIAGVTAEQHEAILAAAAARPTFYTTLMRHCAERTDQRVLGYRPVKCVTKEPAPSKSSGSTSEPAKKERLMSITHFDEVVHVTYSEMEERIFHFGAGLAALGVTANGNVSIYLDTCVEWLIGIYGIWSCSAVAATVYANLGEAALAHALHETESQAILCGSVNVANVLKLMKNGVMPQVPIIHVGALPASLDTHGVQVVSFKQVEMIGAAHLEGGAAKGTGPLNDDDLALIMYTSGTTGDPKGVMHTHRTLAAGLHTLEPRVIDLLGQPRPDDVYLSYLPMAHIMEFTITNLFIFRGAFIGFGTPRTLTDTTARPHGDLLTFNPSMLAGVPRIFDTLKKAVEAKLPPVGTLKRQVFDHAYQSRLAAMKEGKDTPFWNEKVFAAPRAVLGSRLRIMLSGGGPLSAATHEFVNVVFGRVVIGYGLTETICVGAIQIPGDTETNVTGLMEPGQEIKLLDIDEYKHTDTPEPRGEMLSRGPYLFKGYYKQPELTREVLDEDGWFHTGDVGSFTADGKMRIVGRVKALAKNCLGEYIALEALEAVYSSNELLQPNGVCVLVHPDKPYITALALTDEARATSFAAKHGIEGTYPALLKDQRFQQAAAISMADTARASNRASFECVKRVRVIDDEWTPENEILTAAQKLKRRVIDAQYAQTIAELFADD", "soluble on expression in E. coli": "not soluble"}
{"sequence": "MGSSHHHHHHSSGLVPRGSHMEFKVIAEYFDKLEKISSRLQLTALLADLLSKSDKTIIDKVVYIIQGKLWPDFLGYPELGIGEKFLIKAISIATNTDENSVENLYKTIGDLGEVARRLKSKQQSTGILGFLGTTSKESLTVDEVYSTLSKVALTTGEGSRDLKIRLLAGLLKKADPLEAKFLVRFVEGRLRVGIGDATVLDAMAIAFGGGQSASEIIERAYNLRADLGNIAKIIVEKGIEALKTLKPQVGIPIRPMLAERLSNPEEILKKMGGNAIVDYKYDGERAQIHKKEDKIFIFSRRLENITSQYPDVVDYVSKYIEGKEFIIEGEIVAIDPESGEMRPFQELMHRKRKSDIYEAIKEYPVNVFLFDLMYYEDVDYTTKPLEARRKLLESIVKPNDYVKIAHHIQANNVEDLKSFFYRAISEGGEGVMVKAIGKDAIYQAGARGWLWIKLKRDYQSEMADTVDLVVVGGFYGKGKRGGKISSLLMAAYNPKTDSFESVCKVASGFSDEQLDELQKKLMEIKRDVKHPRVNSKMEPDIWVEPVYVAEIIGSEITISPLHTCCQDVVEKDAGLSIRFPRFIRWRDDKSPEDATTTDEILEMYNKQPKKKIESPAVDESV", "soluble on expression in E. coli": "soluble"}
